Results from the supplement of paper PMC7877785.
± gives the uncertainty stated by the source.

Assay: self-splicing fitness, log relative to wild type (ln ratio); higher = more splicing; Tetrahymena group I intron in knt gene, E. coli kanamycin selection, DiMSum; sequences stand for … in CUCUCU…GGAGGGAAAAGUUAUCAGGCAUGCACCUGGUAGCUAGUCUUUAAACCAAUAGAUUGCAUCGGUUUAAAAGGCAAGACCGUCAAAUUGCGGGAAAGGGGUCAACAGCCGUUCAGUACCAAGUCUCAGGGGAAACUUUGAGAUGGCCUUGCAAAGGGUAUGGUAAUAAGCUGACGGACAUGGUCCUAACCACGCAGCCAAGUCCUAAGUCAACAGAUCUUCUGUUGAUAUGGAUGCAGUUCACAGACUAAAUGUCGGUCGGGGAAGAUGUAUUCUUCUCAUAAGAUAUAGUCGGACCUCUCCUUAAUGGGAGCUAGCGGAUGAAGUGAUGCAACACUGGAGCCGCUGGGAACUAAUUUGUAUGCGAAAGUAUAUUGAUUAGUUUUGGAGUACUCGUGGUCG
Summary of the method: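 Library with all eight P1ex-region intron nucleotides randomised, intron inside the knt kanamycin-resistance gene on pET-22b(+), in E. coli BL21(DE3). Cells grew overnight at 37°C or 30°C on LB agar with or without 25 μg/mL kanamycin (plus 100 μg/mL carbenicillin, 50 μM IPTG, 0.2% rhamnose), in six replicate transformations. Pooled colonies were amplicon-sequenced on Illumina HiSeq 2500. DiMSum fitness is the error-weighted combination of wild-type-normalised replicate fold changes, kanamycin versus none.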

Row | Sequence | self-splicing fitness (ln) (30 °C) | self-splicing fitness (ln) (37 °C)
1 | AUCCAGCAAUAUUACGUUGC | -3.87 ± 0.14 | -2.86 ± 0.15
2 | UACAAGCAAUAUUACGCAGC | -4 ± 0.42 | -2.63 ± 0.39
3 | CGGGAGCAAUAUUACGUGGC | -2.62 ± 0.21 | -2.43 ± 0.36
4 | GCGGAGCAAUAUUACGAAUU |  | -1.1 ± 0.33
5 | ACUGAGCAAUAUUACGGUUA | -2.56 ± 0.21 | -1.9 ± 0.17
6 | CUGAAGCAAUAUUACGAAGU | -3.58 ± 0.2 | -2.77 ± 0.41
7 | CGCCAGCAAUAUUACGCAGG | -2.06 ± 0.2 | -2.56 ± 0.26
8 | AGACAGCAAUAUUACGACUA | -0.888 ± 0.092 | -0.383 ± 0.088
9 | CGUCAGCAAUAUUACGGCUG | -1.51 ± 0.12 | -1.24 ± 0.23
10 | GUACAGCAAUAUUACGAGGG | -3.21 ± 0.17 | -2.42 ± 0.2
11 | AUGGAGCAAUAUUACGGUGU | -2.12 ± 0.18 | -0.816 ± 0.24
12 | CAUUAGCAAUAUUACGCGGU | -2.75 ± 0.33 | -2.05 ± 0.42
13 | CUUUAGCAAUAUUACGGCAU | -3.42 ± 0.39 | -2.9 ± 0.4
14 | GUGAAGCAAUAUUACGUCAC |  | -2.47 ± 0.48
15 | GGACAGCAAUAUUACGGUAA | -1.34 ± 0.082 | -0.697 ± 0.075
16 | UUACAGCAAUAUUACGACCG | -0.642 ± 0.091 | -0.0873 ± 0.13
17 | AGUGAGCAAUAUUACGGCCC | -1.16 ± 0.39 | 
18 | UUGGAGCAAUAUUACGAUGG | -1.53 ± 0.21 | -1.54 ± 0.21
19 | UCUGAGCAAUAUUACGAUGC |  | -0.729 ± 0.36
20 | UAGAAGCAAUAUUACGAUAA | -1.05 ± 0.11 | -0.854 ± 0.12
21 | UGGCAGCAAUAUUACGUCCG | -0.782 ± 0.095 | -0.304 ± 0.13
22 | GCUAAGCAAUAUUACGAAUG | -0.647 ± 0.082 | -0.433 ± 0.11
23 | ACAUAGCAAUAUUACGUUUA | -2.82 ± 0.19 | -1.75 ± 0.14
24 | GAGCAGCAAUAUUACGUAUG | -2.86 ± 0.14 | -2.5 ± 0.2
25 | GUUCAGCAAUAUUACGGGCC | -3.61 ± 0.2 | -2.25 ± 0.2
26 | GCCCAGCAAUAUUACGACGG | -3.59 ± 0.25 | -3.13 ± 0.33

Row | Sequence | self-splicing fitness (ln) (30 °C) | self-splicing fitness (ln) (37 °C)
27 | UAGGAGCAAUAUUACGAACG | -0.534 ± 0.12 | -0.578 ± 0.19
28 | GAGUAGCAAUAUUACGUCAG | -2.86 ± 0.17 | -2.24 ± 0.34
29 | AGGCAGCAAUAUUACGCUUU | -3.17 ± 0.35 | -1.41 ± 0.18
30 | AGGCAGCAAUAUUACGUACC | -0.0574 ± 0.12 | 0.0331 ± 0.15
31 | CUUCAGCAAUAUUACGCCGU | -3.17 ± 0.35 | -2.05 ± 0.29
32 | GAUGAGCAAUAUUACGUGCA | -1.14 ± 0.12 | -1.82 ± 0.15
33 | UAACAGCAAUAUUACGAUCU | -1.04 ± 0.073 | 0.151 ± 0.099
34 | GCACAGCAAUAUUACGGUCA | -0.62 ± 0.08 | -0.276 ± 0.074
35 | CCGUAGCAAUAUUACGACGA | -0.268 ± 0.11 | -0.689 ± 0.1
36 | CUUAAGCAAUAUUACGGAGC |  | -4.02 ± 0.39
37 | UAAGAGCAAUAUUACGUGGU | -3.74 ± 0.24 | -2.57 ± 0.19
38 | CGGCAGCAAUAUUACGCGGG | -2.12 ± 0.12 | -1.42 ± 0.13
39 | GUAUAGCAAUAUUACGAGCU | -2.42 ± 0.27 | -1.61 ± 0.3
40 | AUGCAGCAAUAUUACGCAGA | -2.98 ± 0.16 | -1.71 ± 0.12
41 | AUACAGCAAUAUUACGGCGC | -0.801 ± 0.1 | 0.447 ± 0.15
42 | UCACAGCAAUAUUACGACAC | -3.44 ± 0.38 | -2.71 ± 0.34
43 | AUAGAGCAAUAUUACGCGUC | -1.8 ± 0.39 | -1.82 ± 0.26
44 | UCCCAGCAAUAUUACGAAAU | -3.28 ± 0.16 | -1.76 ± 0.2
45 | GAUAAGCAAUAUUACGUCAU | -2.38 ± 0.086 | -1.62 ± 0.095
46 | CAGGAGCAAUAUUACGGUUA | -3.1 ± 0.37 | -3.41 ± 0.4
47 | GGAUAGCAAUAUUACGGCUC | -0.0157 ± 0.31 | -1.59 ± 0.35
48 | GAGCAGCAAUAUUACGUCAC | -3.67 ± 0.18 | -1.3 ± 0.17
49 | ACGAAGCAAUAUUACGCAAA | -2.64 ± 0.15 | -0.916 ± 0.13
50 | GCGUAGCAAUAUUACGCGAC | -2.5 ± 0.11 | -1.42 ± 0.12
51 | CAUUAGCAAUAUUACGUAAU | -2.73 ± 0.19 | -1.96 ± 0.21
52 | UCUUAGCAAUAUUACGAUCC | -1.98 ± 0.38 | 

Row | Sequence | self-splicing fitness (ln) (30 °C) | self-splicing fitness (ln) (37 °C)
53 | AACGAGCAAUAUUACGUAAG | -4.14 ± 0.3 | -0.595 ± 0.14
54 | CAUGAGCAAUAUUACGGGGA | -3.14 ± 0.19 | -3.03 ± 0.22
55 | AACUAGCAAUAUUACGACCA | -0.23 ± 0.079 | 0.118 ± 0.1
56 | GAAGAGCAAUAUUACGACGC | -1.55 ± 0.15 | 0.291 ± 0.16
57 | CUUUAGCAAUAUUACGGCUC |  | -2.16 ± 0.46
58 | CCAUAGCAAUAUUACGGAGA | -4.12 ± 0.28 | -3.35 ± 0.29
59 | CACUAGCAAUAUUACGACCU | -2.03 ± 0.28 | -1.6 ± 0.18
60 | CACUAGCAAUAUUACGCGGU | -4.59 ± 0.26 | -3.62 ± 0.28
61 | AACGAGCAAUAUUACGCUCU | -5.11 ± 0.41 | -1.81 ± 0.14
62 | ACCGAGCAAUAUUACGUUCG | -3.19 ± 0.48 | -1.76 ± 0.23
63 | GGCGAGCAAUAUUACGCAGG | -2.43 ± 0.23 | -2.75 ± 0.33
64 | GUAGAGCAAUAUUACGAUCA | -1.28 ± 0.23 | -0.907 ± 0.24
65 | UGCCAGCAAUAUUACGCACU | -2.03 ± 0.069 | -0.315 ± 0.066
66 | GUGCAGCAAUAUUACGACAU | -0.587 ± 0.013 | -0.143 ± 0.032
67 | UGGUAGCAAUAUUACGUUGA | -0.502 ± 0.17 | -0.66 ± 0.15
68 | AACAAGCAAUAUUACGGCGG | -0.998 ± 0.078 | -0.826 ± 0.1
69 | GCAGAGCAAUAUUACGUUUC | -4.1 ± 0.39 | -2.27 ± 0.44
70 | CCGGAGCAAUAUUACGAGUC | -3.15 ± 0.26 | -1.85 ± 0.28
71 | UACUAGCAAUAUUACGUAAU | -2.63 ± 0.17 | -1.93 ± 0.22
72 | UUACAGCAAUAUUACGGAUG | -2.18 ± 0.1 | -0.325 ± 0.1
73 | AACUAGCAAUAUUACGCCGU | -1.62 ± 0.11 | -0.221 ± 0.14
74 | AUAGAGCAAUAUUACGGCAA | -1.97 ± 0.21 | -0.382 ± 0.17
75 | AUAAAGCAAUAUUACGCCGA | -1.06 ± 0.077 | 0.123 ± 0.11
76 | UGUUAGCAAUAUUACGCUCU | -1.66 ± 0.16 | -0.371 ± 0.16
77 | ACUGAGCAAUAUUACGACCA | -2.57 ± 0.39 | -1.1 ± 0.28
